# Where two headings read alike, the source gives them in different places.
# T1: MAGEA3 peptide no 10
# T1 construct: also called MAGEA3 aa 91-110
# T1 peptide: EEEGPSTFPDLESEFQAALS
# T2: MAGEA3 peptide no 11
# T2 construct: also called MAGEA3 aa 101-120
# T2 peptide: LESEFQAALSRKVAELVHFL
# T3: MAGEA3 peptide no 13
# T3 construct: also called MAGEA3 aa 121-140
# T3 peptide: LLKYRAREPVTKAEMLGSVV
# T4: MAGEA3 peptide no 14
# T4 construct: also called MAGEA3 aa 131-150
# T4 peptide: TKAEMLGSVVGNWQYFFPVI
# T5: MAGEA3 peptide no 15
# T5 construct: also called MAGEA3 aa 141-160
# T5 peptide: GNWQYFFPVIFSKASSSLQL
# T6: MAGEA3 peptide no 19
# T6 construct: also called MAGEA3 aa 181-200
# T6 peptide: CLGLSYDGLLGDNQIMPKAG
# T7: MAGEA3 peptide no 22
# T7 construct: also called MAGEA3 aa 211-230
# T7 peptide: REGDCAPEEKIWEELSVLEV
# T8: MAGEA3 peptide no 26
# T8 construct: also called MAGEA3 aa 251-270
# T8 peptide: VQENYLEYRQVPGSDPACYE
# T9: MAGEA3 peptide no 27
# T9 construct: also called MAGEA3 aa 261-280
# T9 peptide: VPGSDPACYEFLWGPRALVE
# T10: MAGEA3 peptide no 29
# T10 construct: also called MAGEA3 aa 281-300
# T10 peptide: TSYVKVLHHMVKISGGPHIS
# T11: MAGEA3 peptide no 30
# T11 construct: also called MAGEA3 aa 291-310
# T11 peptide: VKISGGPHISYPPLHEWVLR
# T12: MAGEA3 peptide no 31
# T12 construct: also called MAGEA3 aa 295-314
# T12 peptide: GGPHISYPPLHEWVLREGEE
# T13: MAGEA3 peptide no 7
# T13 construct: also called MAGEA3 aa 61-80
# T13 peptide: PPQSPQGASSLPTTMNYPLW
# T14: MAGEA3 peptide no 9
# T14 construct: also called MAGEA3 aa 81-100
# T14 peptide: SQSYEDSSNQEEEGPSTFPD
# B1: 102G10 (antibody, V domains shown)
# VH: EVQLVESGGGLVKPGGSLRLSCAASGFTFSGNSMNWVRQAPGKGLEWVSSISSSSGYIYYADSVKGRFTVSRDNAKNSLYLQMNSLRAEDTAVYYCATWPVTTARVGYWGQGTLVTVSS
# VL: QSVLTQPPSASGTPGQRVTISCSGSSSNIGSNYVYWHQQLPGTAPKLLIYRHDQRPSGVPDRFSGSKSGTSASLAISGLRSEDEADYYCAAWDDSLSAWVFGGGTKLTVL
# notes: Patient-derived human antibody made recombinantly; also called human monoclonal antibody 102G10
# B2: 32H2 (antibody, V domains shown)
# VH: QVQLVESGGGVVQPGRSLRLSCAASGFTFSSNAMHWVRQAPGKGLEWVAVISHDGSNKYYADSVKGRFTISRDNSKNTLYLQMNSLRAEDTAVYYCARDGSGSYFNLDYWGQGTLVTVSS
# VL: QSALTQPASVSGSPGQSITISCTGTSSDVGGYNYVSWYQQHPGKAPKLMIYEVSNRPSGVSNRFSGSKSGNTASLTISGLQAEDEADYYCSSYTSSSTLVFGTGTKVTVL
# notes: Patient-derived human antibody made recombinantly; also called human monoclonal antibody 32H2
# B3: 34G9 (antibody, V domains shown)
# VH: EVQLEESGGDLVQPGGSLRLSCAASGFTFSHYWMHWVRQAPGKGLVWVSRINSDGSSTSYADSVKGRFTISRDNAKNTLYLQMNSLRAEDTAVYYCARIGSDGYNYDFWGQGTLVTVSS
# VL: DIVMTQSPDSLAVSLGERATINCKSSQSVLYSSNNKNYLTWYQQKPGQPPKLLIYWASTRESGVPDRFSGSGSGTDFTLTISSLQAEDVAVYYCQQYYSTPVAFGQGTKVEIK
# notes: Patient-derived human antibody made recombinantly; also called human monoclonal antibody 34G9
# Experiments:
# [1] = target: T15, MAGEA3 (human, UniProt P43357 1-314); test: ELISA, plate coated with recombinant MAGEA3, serial dilution of antibody [Figure 4]
# T15 construct: also called recombinant MAGEA3; MAGEA3-protein
# [2] = target: T1, MAGEA3 peptide no 10; test: peptide ELISA (coated 20mer)
# Description: (§1) 20mer peptides spanning the entire MAGEA3 protein with 10 aa overlaps shared by each adjacent peptide (Peptides&Elephants, Nuthetal, Germany) were used to coat Maxisorp ELISA plates (Nunc, Rochester, N.Y.). As control a 20mer peptide representing amino acids 40-21 from the NY-ESO-1 protein was used (rev). The numbering of amino acids of MAGEA3 is based on SEQ ID No:41.
# (§2) Human recombinant antibody was used at a concentration of 1 μg/ml. Bound human antibody was detected using horseradish peroxidase-conjugated goat anti-human IgG Fc-gamma specific antibodies (Jackson ImmunoResearch, Europe Ltd., Cambridgeshire, UK).
# [3] = target: T2, MAGEA3 peptide no 11; test: peptide ELISA (coated 20mer)
# Description: as §1, §2
# [4] = target: T3, MAGEA3 peptide no 13; test: peptide ELISA (coated 20mer)
# Description: as §1, §2
# [5] = target: T4, MAGEA3 peptide no 14; test: peptide ELISA (coated 20mer)
# Description: as §1, §2
# [6] = target: T5, MAGEA3 peptide no 15; test: peptide ELISA (coated 20mer)
# Description: as §1, §2
# [7] = target: T6, MAGEA3 peptide no 19; test: peptide ELISA (coated 20mer)
# Description: as §1, §2
# [8] = target: T7, MAGEA3 peptide no 22; test: peptide ELISA (coated 20mer)
# Description: as §1, §2
# [9] = target: T8, MAGEA3 peptide no 26; test: peptide ELISA (coated 20mer)
# Description: as §1, §2
# [10] = target: T9, MAGEA3 peptide no 27; test: peptide ELISA (coated 20mer)
# Description: as §1, §2
# [11] = target: T10, MAGEA3 peptide no 29; test: peptide ELISA (coated 20mer)
# Description: as §1, §2
# [12] = target: T11, MAGEA3 peptide no 30; test: peptide ELISA (coated 20mer)
# Description: as §1, §2
# [13] = target: T12, MAGEA3 peptide no 31; test: peptide ELISA (coated 20mer)
# Description: as §1, §2
# [14] = target: T13, MAGEA3 peptide no 7; test: peptide ELISA (coated 20mer)
# Description: as §1, §2
# [15] = target: T14, MAGEA3 peptide no 9; test: peptide ELISA (coated 20mer)
# Description: as §1, §2
# [16] = target: T15, MAGEA3; test: ELISA, plate coated with recombinant MAGEA3, serial dilution of antibody [Figure 4]; remark: listed apart in the source
binder,measurement,setting,value
B1,EC50,[1],0.034 nM
B2,binding result,[2],no binding (tested: 1 µg/ml)
same,binding result,[3],no binding (tested: 1 µg/ml)
same,binding result,[4],no binding (tested: 1 µg/ml)
same,binding result,[5],no binding (tested: 1 µg/ml)
same,binding result,[6],no binding (tested: 1 µg/ml)
same,binding result,[7],no binding (tested: 1 µg/ml)
same,binding result,[8],no binding (tested: 1 µg/ml)
same,binding result,[9],no binding (tested: 1 µg/ml)
same,binding result,[10],no binding (tested: 1 µg/ml)
same,binding result,[11],no binding (tested: 1 µg/ml)
same,binding result,[12],no binding (tested: 1 µg/ml)
same,binding result,[13],no binding (tested: 1 µg/ml)
same,binding result,[14],no binding (tested: 1 µg/ml)
same,binding result,[15],no binding (tested: 1 µg/ml)
B3,EC50,[16],0.045 nM
same,EC50 (read off the curve),[16],~0.04 nM

# From patent US20140186363A1 (UNIVERSITY OF ZURICH, published 2014)
